Source: patent publication US11505811B2, “Method for the preparation of 2,4-dihydroxybutyrate” (ADISSEO FRANCE S.A.S., priority 2012, dated 2022)

B1: Ec-IlvE: branched-chain-amino-acid transaminase from Escherichia coli, SEQ ID No. 60 (protein, listed as Escherichia coli)
chain: MTTKKADYIWFNGEMVRWEDAKVHVMSHALHYGTSVFEGIRCYDSHKGPVVFRHREHMQRLHDSAKIYRFPVSQSIDELMEACRDVIRKNNLTSAYIRPLIFVGDVGMGVNPPAGYSTDVIIAAFPWGAYLGAEALEQGIDAMVSSWNRAAPNTIPTAAKAGGNYLSSLLVGSEARRHGYQEGIALDVNGYISEGAGENLFEVKDGVLFTPPFTSSALPGITRDAIIKLAKELGIEVREQVLSRESLYLADEVFMSGTAAEITPVRSVDGIQVGEGRCGPVTKRIQQAFFGLFTGETEDKWGWLDQVNQ
B2: Ec-AspC: aspartate transaminase from E. coli, SEQ ID No. 64 (protein, listed as Escherichia coli)
chain: MFENITAAPADPILGLADLFRADERPGKINLGIGVYKDETGKTPVLTSVKKAEQYLLENETTKNYLGIDGIPEFGRCTQELLFGKGSALINDKRARTAQTPGGTGALRVAADFLAKNTSVKRVWVSNPSWPNHKSVFNSAGLEVREYAYYDAENHTLDFDALINSLNEAQAGDVVLFHGCCHNPTGIDPTLEQWQTLAQLSVEKGWLPLFDFAYQGFARGLEEDAEGLRAFAAMHKELIVASSYSKNFGLYNERVGACTLVAADSETVDRAFSQMKAAIRANYSNPPAHGASVVATILSNDALRAIWEQELTDMRQRIQRMRQLFVNTLQEKGANRDFSFIIKQNGMFSFSGLTKEQVLRLREEFGVYAVASGRVNVAGMTPDNMAPLCEAIVAVL

How the values were obtained:
Type in all cases: biochemical
[1] = homoserine transaminase activity, coupled dehydrogenase assay; conditions: measured at 50 mM homoserine; 2-oxoglutarate as acceptor
Protocol: (§1) Enzymatic assays: Transaminase activity of several candidate aminotransferases was quantified with 2-oxoglutarate as the amino group acceptor. Transaminase reactions were carried out using homoserine and the preferred amino acid of the enzymes. The reactions were followed by the amino acid-dependent oxidation of NADH in the coupled dehydrogenase reaction.
(§2) Transaminase Assays (Reaction Scheme)
(§3) Transaminase: Amino acid+2-oxoglutarate→2-oxo-acid+glutamate
(§4) Dehydrogenase: 2-oxo-acid+NADH→2-hydroxy-acid+NAD^+
The reaction mixture contained 60 mM Hepes (pH 7), 50 mM potassium chloride, 5 mM MgCl2, 4 mM 2-oxoglutarate, 0.1 mM pyridoxal-5′-phosphate (PLP), 0.25 mM NADH, (optionally 5 mM fructose-1,6-bisphosphate) (all products from Sigma), 4 Units/mL of auxiliary 2-hydroxyacid dehydrogenase, and appropriate amounts of purified aminotransferase or cell extract. The auxiliary dehydrogenase enzyme was purified PanE from L. lactis in case of the amino acids phenylalanine and leucine (Chambellon, Rijnen, Lorquet, Gitton, van HylckamaVlieg, Wouters, & Yvon, 2009), malate dehydrogenase (Sigma) in case of aspartate, and rabbit muscle (L)-lactate dehydrogenase (Sigma) when homoserine was used as the starting substrate. Reactions were started by adding 50 mM of the amino acid.
(§5) Enzymatic assays were carried out at 37° C. in 96-well flat bottomed microtiter plates in a final volume of 250 μL. The reactions were followed by the characteristic absorption of NAD(P)H at 340 nm (εNADPH=6.22 mM^−1 cm^−1) in a microplate reader (BioRad 680XR).

[2] = transaminase activity on preferred amino acid (L), coupled dehydrogenase assay; conditions: superscript (L); 50 mM amino acid; 2-oxoglutarate as acceptor
Protocol: as §1, §2, §3, §4
(§6) The reaction mixture contained 60 mM Hepes (pH 7), 50 mM potassium chloride, 5 mM MgCl2, 4 mM 2-oxoglutarate, 0.1 mM pyridoxal-5′-phosphate (PLP), 0.25 mM NADH, (optionally 5 mM fructose-1,6-bisphosphate) (all products from Sigma), 4 Units/mL of auxiliary 2-hydroxyacid dehydrogenase, and appropriate amounts of purified aminotransferase or cell extract. […]
as §5

[3] = transaminase activity on preferred amino acid (A), coupled dehydrogenase assay; conditions: superscript (A); 50 mM amino acid; 2-oxoglutarate as acceptor
Protocol: as §1, §2, §3, §4, §6, §5

Row | Molecule | Max. specific activity on Homoserine [1] | Max. specific activity on preferred amino acid (L) [2] | Max. specific activity on preferred amino acid (A) [3]
1 | B1 | 0.077 μmol/(min mgprot) | 10.3^(L) μmol/(min mgprot) | 
2 | B2 | 0.082 μmol/(min mgprot) |  | 74.031^(A) μmol/(min mgprot)
